Assay results: patent US20230038638A1, “COMPLEMENT FACTOR I-RELATED COMPOSITIONS AND METHODS” (published 2023)

Key:
[1] = biological target: T1, human C4b (human) (UniProt P0C0L5)
T1 sequence: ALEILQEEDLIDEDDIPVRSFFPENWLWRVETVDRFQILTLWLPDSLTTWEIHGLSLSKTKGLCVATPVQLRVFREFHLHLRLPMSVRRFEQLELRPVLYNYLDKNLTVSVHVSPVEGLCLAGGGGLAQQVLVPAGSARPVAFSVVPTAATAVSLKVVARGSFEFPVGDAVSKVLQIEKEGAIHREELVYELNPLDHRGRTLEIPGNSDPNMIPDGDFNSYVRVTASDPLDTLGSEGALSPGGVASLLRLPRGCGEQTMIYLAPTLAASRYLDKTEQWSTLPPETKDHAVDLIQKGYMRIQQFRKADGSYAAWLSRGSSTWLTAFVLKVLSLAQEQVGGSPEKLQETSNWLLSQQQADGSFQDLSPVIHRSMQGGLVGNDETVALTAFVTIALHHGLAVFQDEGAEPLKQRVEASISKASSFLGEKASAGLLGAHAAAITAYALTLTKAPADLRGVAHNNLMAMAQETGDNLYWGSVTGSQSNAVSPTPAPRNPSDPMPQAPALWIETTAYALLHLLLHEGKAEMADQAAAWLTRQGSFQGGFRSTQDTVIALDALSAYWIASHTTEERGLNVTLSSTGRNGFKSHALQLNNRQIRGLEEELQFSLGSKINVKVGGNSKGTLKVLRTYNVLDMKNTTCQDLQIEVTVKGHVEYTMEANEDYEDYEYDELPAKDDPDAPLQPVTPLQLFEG

[2] = biological target: soluble human C3b (human) (UniProt P01024)

Sequence of WT; GGSSGG (SEQ ID NO: 6); CCP_2-4 (enzyme) (chain): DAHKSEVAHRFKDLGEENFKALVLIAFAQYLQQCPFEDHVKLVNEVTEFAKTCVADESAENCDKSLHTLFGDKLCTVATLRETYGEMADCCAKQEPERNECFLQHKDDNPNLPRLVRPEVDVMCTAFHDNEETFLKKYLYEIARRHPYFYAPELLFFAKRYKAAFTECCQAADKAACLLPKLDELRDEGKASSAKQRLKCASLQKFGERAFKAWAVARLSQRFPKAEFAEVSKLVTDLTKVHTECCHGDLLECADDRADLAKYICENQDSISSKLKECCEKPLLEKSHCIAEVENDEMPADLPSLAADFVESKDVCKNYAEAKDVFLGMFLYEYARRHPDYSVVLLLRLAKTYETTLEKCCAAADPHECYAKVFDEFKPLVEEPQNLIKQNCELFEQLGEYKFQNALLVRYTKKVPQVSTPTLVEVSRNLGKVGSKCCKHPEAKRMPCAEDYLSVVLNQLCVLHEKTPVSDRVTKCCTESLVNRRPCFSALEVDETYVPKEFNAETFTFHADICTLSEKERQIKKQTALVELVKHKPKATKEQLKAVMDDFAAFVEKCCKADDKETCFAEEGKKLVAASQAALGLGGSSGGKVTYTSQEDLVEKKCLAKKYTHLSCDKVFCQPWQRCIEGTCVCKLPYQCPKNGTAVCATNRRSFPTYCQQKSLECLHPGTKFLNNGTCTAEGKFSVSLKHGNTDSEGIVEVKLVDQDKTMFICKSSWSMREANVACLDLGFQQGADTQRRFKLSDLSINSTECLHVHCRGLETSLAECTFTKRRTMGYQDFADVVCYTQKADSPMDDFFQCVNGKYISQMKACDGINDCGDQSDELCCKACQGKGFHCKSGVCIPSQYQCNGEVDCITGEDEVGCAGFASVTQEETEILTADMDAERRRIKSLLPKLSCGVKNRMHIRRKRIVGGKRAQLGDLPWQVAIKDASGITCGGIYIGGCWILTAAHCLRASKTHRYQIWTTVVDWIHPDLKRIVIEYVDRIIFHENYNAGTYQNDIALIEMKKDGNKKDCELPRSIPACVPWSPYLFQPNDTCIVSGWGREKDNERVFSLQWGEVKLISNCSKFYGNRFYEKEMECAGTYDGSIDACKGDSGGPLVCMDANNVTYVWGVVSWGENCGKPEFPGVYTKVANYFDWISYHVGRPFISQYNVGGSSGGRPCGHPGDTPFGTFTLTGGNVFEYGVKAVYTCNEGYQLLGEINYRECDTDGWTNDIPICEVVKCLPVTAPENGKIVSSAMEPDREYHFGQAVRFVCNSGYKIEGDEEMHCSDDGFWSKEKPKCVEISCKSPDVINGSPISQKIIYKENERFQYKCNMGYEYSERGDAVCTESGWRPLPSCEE

Substance | C4b Screen Ref Fold (fold vs CFI-HSA wild type) [1] | iC3b Screen Ref Fold (fold vs CFI-HSA wild type) [2] | further results
CFI-HSA variant Y553F; F559L (enzyme) |  |  | C4b Screen Ref Fold (fold of CFI-HSA wild type) [1]: 0.77; iC3b Screen Ref Fold (fold of CFI-HSA wild type) [2]: 0.35
CFI-HSA variant V565I (enzyme) |  |  | C4b Screen Ref Fold (fold of CFI-HSA wild type) [1]: 1.11; iC3b Screen Ref Fold (fold of CFI-HSA wild type) [2]: 1.25
CFI-HSA variant E487A; K14A (enzyme) |  |  | C4b Screen Ref Fold (fold of CFI-HSA wild type) [1]: 0.87; iC3b Screen Ref Fold (fold of CFI-HSA wild type) [2]: 1.71
CFI-HSA variant I322V (enzyme) | 0.38 | 0.39 | 
CFI-HSA L73G (enzyme) | 0.17 | 0.3 | 
CFI-HSA N531G; P535A; R557K (enzyme) | 4.13 | 1.65 | 
CFI-HSA L76G (enzyme) | 0.07 | 0.5 | 
CFI-HSA E457G; E461Q; F464Y; N531G; GGSSGG (SEQ ID NO: 6); CR1 (ccp15-17) (from UniProt P17927) (enzyme) | 4.44 | 0.13 | 
CFI-HSA K423A (enzyme) | 0.11 | 0.23 | 
CFI-HSA variant Y408G (enzyme) | 0.05 | 0.27 | 
CFI-HSA K424M (enzyme) | 0.33 | 0.95 | 
CFI-HSA variant Y408L; N531G; P535G; P558S (enzyme) |  |  | C4b Screen Ref Fold (fold of CFI-HSA wild type) [1]: 1.02; iC3b Screen Ref Fold (fold of CFI-HSA wild type) [2]: 1.28
CFI-HSA K424F (enzyme) | 0.35 | 1.04 | 
CFI-HSA T377G; N531G (enzyme) | 4.53 | 2.34 | 
CFI-HSA variant F559L; V565I; P558S (enzyme) |  |  | C4b Screen Ref Fold (fold of CFI-HSA wild type) [1]: 0.43; iC3b Screen Ref Fold (fold of CFI-HSA wild type) [2]: 0.49
CFI-HSA variant Y408L; E457G; WT; GGSSGG (SEQ ID NO: 6); CR1(ccp15-17) (from UniProt P17927) (enzyme) |  |  | C4b Screen Ref Fold (fold of CFI-HSA wild type) [1]: 3.18; iC3b Screen Ref Fold (fold of CFI-HSA wild type) [2]: 0.12
CFI-HSA R365D (enzyme) | 0.02 | 0.03 | 
CFI-HSA variant Y408L; D425K (enzyme) |  |  | C4b Screen Ref Fold (fold of CFI-HSA wild type) [1]: 1.29; iC3b Screen Ref Fold (fold of CFI-HSA wild type) [2]: 1.14
CFI-HSA variant R462D (enzyme) | -0.05 | 0 | 
CFI-HSA variant Y553H; V565I; P558S (enzyme) |  |  | C4b Screen Ref Fold (fold of CFI-HSA wild type) [1]: 1.75; iC3b Screen Ref Fold (fold of CFI-HSA wild type) [2]: 0.46
CFI-HSA variant S552G (enzyme) |  |  | C4b Screen Ref Fold (fold of CFI-HSA wild type) [1]: 1.08; iC3b Screen Ref Fold (fold of CFI-HSA wild type) [2]: 0.58
CFI-HSA R456G (enzyme) | 0.04 | 0.03 | 
CFI-HSA variant E38A; D425R (enzyme) | 0.96 | 0.83 | 
CFI-HSA variant S507A; GGSSGG (SEQ ID NO: 6); CR1(ccp15-17) (from UniProt P17927) (enzyme) |  |  | C4b Screen Ref Fold (fold of CFI-HSA wild type) [1]: -0.01; iC3b Screen Ref Fold (fold of CFI-HSA wild type) [2]: -0.01

Substance | C4b Screen Ref Fold (fold vs CFI-HSA wild type) [1] | iC3b Screen Ref Fold (fold vs CFI-HSA wild type) [2] | further results
CFI-HSA variant Y408L; P535G; K534Q (enzyme) |  |  | C4b Screen Ref Fold (fold of CFI-HSA wild type) [1]: 0.33; iC3b Screen Ref Fold (fold of CFI-HSA wild type) [2]: 0.26
CFI-HSA R557E (enzyme) | 1.15 | -0.02 | 
CFI-HSA N531G; P535A; ΔC-term (Δ558-PFISQYNV (SEQ ID NO: 14)-565) (enzyme) | 0.96 | 0.24 | 
CFI-HSA variant Y408L; E457G; P535G; K534Q (enzyme) |  |  | C4b Screen Ref Fold (fold of CFI-HSA wild type) [1]: 1.43; iC3b Screen Ref Fold (fold of CFI-HSA wild type) [2]: 0.53
CFI-HSA variant T495F; Y496L; D497E; S499G; I500K; G533A; K534Q; P535K; E536N; F537K (enzyme) | -0.02 | 0.02 | 
CFI-HSA K423D (enzyme) | 0.31 | 0.33 | 
CFI-HSA D549A (enzyme) | 1.04 | 0.66 | 
CFI-HSA variant S552G; F559L; V565I (enzyme) |  |  | C4b Screen Ref Fold (fold of CFI-HSA wild type) [1]: 0.73; iC3b Screen Ref Fold (fold of CFI-HSA wild type) [2]: 0.42
CFI-HSA R365K (enzyme) | 0.39 | 1.01 | 
WT; GGSSGG (SEQ ID NO: 6); CCP_2-4 (enzyme) | 0.38 | 0 | 
CFI-HSA variant S552G; F559L; P558S (enzyme) |  |  | C4b Screen Ref Fold (fold of CFI-HSA wild type) [1]: 0.93; iC3b Screen Ref Fold (fold of CFI-HSA wild type) [2]: 0.44
CFI-HSA Y408L; N531G; E530Y (enzyme) | 2.25 | 2.11 | 
CFI-HSA variant N531G; P535G; WT; GGSSGG (SEQ ID NO: 6); CR1(ccp15-17) (from UniProt P17927) (enzyme) |  |  | C4b Screen Ref Fold (fold of CFI-HSA wild type) [1]: 3.06; iC3b Screen Ref Fold (fold of CFI-HSA wild type) [2]: 0.06
CFI-HSA variant F559L; Y563H; V565T (enzyme) |  |  | C4b Screen Ref Fold (fold of CFI-HSA wild type) [1]: 0.55; iC3b Screen Ref Fold (fold of CFI-HSA wild type) [2]: 0.58
CFI-HSA D549F (enzyme) | 0.05 | 0.22 | 
CFI-HSA variant Y553H; F559L; P558S (enzyme) |  |  | C4b Screen Ref Fold (fold of CFI-HSA wild type) [1]: 0.69; iC3b Screen Ref Fold (fold of CFI-HSA wild type) [2]: 0.22
CFI-HSA Y553V (enzyme) | 0.37 | 1.1 | 
CFI-HSA variant N159Q (enzyme) | 0.75 | 2.21 | 
CFI-HSA E457G; E461Q; R557K (enzyme) | 4.28 | 1.81 | 
CFI-HSA variant Y403F; G406A; D425K; E457G; E461Q; N531G (enzyme) |  |  | C4b Screen Ref Fold (fold relative to CFI-HSA wild type) [1]: 4.12; iC3b Screen Ref Fold (fold relative to CFI-HSA wild type) [2]: 0.14
CFI-HSA variant V323A (enzyme) | 0.01 | 0.05 | 
CFI-HSA E457G; N531G; E461Q; R462K; F464Y; GGSSGG (SEQ ID NO: 6); CR1 (ccp15-17) (from UniProt P17927) (enzyme) | 4.36 | 0.1 | 
CFI-HSA variant Y408L; E457G; N531G; P535G; WT; GGSSGG (SEQ ID NO: 6); CR1(ccp15-17) (from UniProt P17927) (enzyme) |  |  | C4b Screen Ref Fold (fold of CFI-HSA wild type) [1]: 3.14; iC3b Screen Ref Fold (fold of CFI-HSA wild type) [2]: 0.05

Second part, led by results:

C4b Screen Ref Fold (fold vs CFI-HSA wild type) [1] | iC3b Screen Ref Fold (fold vs CFI-HSA wild type) [2] | Substance | further results
0.07 | -0.01 | CFI-HSA P538G (enzyme) | 
2.44 | 0.11 | CFI-HSA R557H (enzyme) | 
1.21 | 0.77 | fH_CCP1-4; GGGGSS(7); wt hCFI (enzyme) | 
0.18 | 0.07 | CFI-HSA R365P (enzyme) | 
2.23 | 0.21 | CFI-HSA R557V (enzyme) | 
2.12 | 0.08 | CFI-HSA R557Q (enzyme) | 
0.23 | 0.64 | CFI-HSA R365F (enzyme) | 
2.99 | 2.08 | CFI-HSA Y408L; N531G; D425R; E530Y (enzyme) | 
1 | 0.18 | CFI-HSA D549K (enzyme) | 
-0.1 | 0.29 | CFI-HSA K424S (enzyme) | 
0.64 | 0.99 | CFI-HSA variant K14A; D425R (enzyme) | 
0.02 | 0 | CFI-HSA variant D506A (enzyme) | 
1.49 | 0.69 | fH_CCP1-4; GGSS(11); wt hCFI (enzyme) | 
1.49 | 1.12 | CFI-HSA Y553K (enzyme) | 
0.31 | 0.11 | CFI-HSA variant R462A (enzyme) | 
0.51 | 1.06 | CFI-HSA Y553I (enzyme) | 
